This data set concerns the target T1, MBP-CFLAP1 (AKS1) (Arabidopsis thaliana, UniProt Q9C690 1-379).
T1 sequence: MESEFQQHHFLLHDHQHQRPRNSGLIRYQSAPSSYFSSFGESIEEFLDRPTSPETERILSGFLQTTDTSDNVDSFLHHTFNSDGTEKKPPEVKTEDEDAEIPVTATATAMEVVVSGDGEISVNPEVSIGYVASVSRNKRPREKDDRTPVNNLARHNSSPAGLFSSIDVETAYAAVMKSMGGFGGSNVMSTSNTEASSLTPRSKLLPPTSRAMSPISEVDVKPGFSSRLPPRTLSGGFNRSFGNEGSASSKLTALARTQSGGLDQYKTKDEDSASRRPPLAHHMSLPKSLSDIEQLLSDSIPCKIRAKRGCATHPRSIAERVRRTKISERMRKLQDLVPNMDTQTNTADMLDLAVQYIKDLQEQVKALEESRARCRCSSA
Put plainly: EMSA. For orientation: Mobility shift assays separate free from complexed probe on a gel.

B1: pCYP86A2 P1 probe (dsDNA)
DNA 1: CTACGTACAGTTGTGTTCCATTTGTTACAA
DNA 2: TTGTAACAAATGGAACACAACTGTACGTAG
For B1, the binding result is on record as “binds”.

B2: pBDG1 P2 probe (dsDNA)
DNA 1: TGGCCACATGCCATCATATCACTTGTCCAT
DNA 2: ATGGACAAGTGATATGATGGCATGTGGCCA
For B2, the binding result was “binds”.

B3: pCYP86A2 P3 probe (dsDNA)
DNA 1: GATCATTGGTTTACGATCACTTGCAAAGTC
DNA 2: GACTTTGCAAGTGATCGTAAACCAATGATC
With B3, the binding result is reported as “binds”.

B4: pCYP86A4 P1 probe (dsDNA)
DNA 1: TCGGAAAAGTACACTTGGGCTTATA
DNA 2: TATAAGCCCAAGTGTACTTTTCCGA
On to B4, for which the binding result was “binds”.

B5: pCYP86A4 P2 probe (dsDNA)
DNA 1: CCACTTTGGTTAACATTTGAGGAAT
DNA 2: ATTCCTCAAATGTTAACCAAAGTGG
Consider B5, for which the binding result was “binds”.

B6: pCYP86A2 P2 probe (dsDNA)
DNA 1: GATATTGCAGTTGCAGCGTACACAAGTCAG
DNA 2: CTGACTTGTGTACGCTGCAACTGCAATATC
On to B6, for which the binding result is “binds”.

B7: pBDG1 P1 probe (dsDNA)
DNA 1: CGTCGTTGACCTCTGCATTACAATTGTGTC
DNA 2: GACACAATTGTAATGCAGAGGTCAACGACG
B7: the binding result is “binds”.
